Experimental data taken from patent US20180298070A1, “PEPTIDE COMPOUND” (Takeda Pharmaceutical Company Limited, published 2018).
Non-standard residues stand in square brackets, D forms with d. No end group written: not given here. NMeY = CN[C@@H](Cc1ccc(O)cc1)C(=O)O; dIva = CC[C@@](C)(N)C(=O)O; Iva = CC[C@](C)(N)C(=O)O; Aib = CC(C)(N)C(=O)O

T1: human GIPR (human), P48546
T1 chain: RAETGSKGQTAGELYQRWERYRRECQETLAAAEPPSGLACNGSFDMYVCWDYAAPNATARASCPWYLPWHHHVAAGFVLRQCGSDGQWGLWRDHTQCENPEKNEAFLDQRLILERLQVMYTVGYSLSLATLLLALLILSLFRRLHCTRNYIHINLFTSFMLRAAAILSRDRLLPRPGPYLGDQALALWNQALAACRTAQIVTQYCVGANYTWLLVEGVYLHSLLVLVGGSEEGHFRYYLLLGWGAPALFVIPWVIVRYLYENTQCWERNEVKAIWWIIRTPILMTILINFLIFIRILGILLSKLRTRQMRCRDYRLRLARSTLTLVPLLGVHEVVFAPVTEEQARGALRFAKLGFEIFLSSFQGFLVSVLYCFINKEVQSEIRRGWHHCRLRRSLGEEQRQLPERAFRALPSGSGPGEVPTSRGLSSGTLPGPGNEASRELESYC

T2: human GLP-1R (human), P43220
T2 chain: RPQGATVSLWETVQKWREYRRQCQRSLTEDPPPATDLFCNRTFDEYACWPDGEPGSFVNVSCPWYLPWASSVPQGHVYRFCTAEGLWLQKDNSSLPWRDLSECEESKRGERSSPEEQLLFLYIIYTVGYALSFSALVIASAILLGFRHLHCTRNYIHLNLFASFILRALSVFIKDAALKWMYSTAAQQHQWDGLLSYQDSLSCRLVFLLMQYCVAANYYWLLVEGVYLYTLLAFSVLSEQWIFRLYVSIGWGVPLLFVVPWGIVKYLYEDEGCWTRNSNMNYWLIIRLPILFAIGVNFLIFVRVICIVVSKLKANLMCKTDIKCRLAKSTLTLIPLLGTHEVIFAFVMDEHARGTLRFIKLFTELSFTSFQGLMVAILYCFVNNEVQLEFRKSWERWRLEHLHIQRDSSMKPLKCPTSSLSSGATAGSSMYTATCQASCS


Tests used:
[1] = target: human GLP-1R (human, UniProt P43220); experiment: cell-based or functional assay
[2] = target: T1, human GIPR (human), P48546
[3] = target: T2, human GLP-1R (human), P43220
[4] = target: T1, human GIPR (human), P48546; experiment: [125I]GIP displacement, hGIPR VLP
[5] = target: human GLP-1R (human, UniProt P43220); experiment: cell-based or functional assay; remark: listed apart in the source

Row | Binder | Agonist activity (EC50, M) [1] | also measured
1 | YXEGTXISDYSIXXDRXAQXNFVNWXLAQR (N-methyl on Tyr1 (MeTyr); Aib at 2, 13, 17, 20; Iva at 6, 26; Lys(Oda-GGGGG-) at 14; C-terminal NH2) [Compound 415] | > 1e-06 M | –
2 | YXEGTXISDYSIXXDRXAQXNFVNWXLAQRPSSGAPPPSR (N-methyl on Tyr1 (Me-Tyr); Aib at 2, 13, 17, 20; Iva at 6, 26; Lys(Eda-GGGGG-) at 14; C-terminal NH2) [Compound 473] | > 1e-06 M | –
3 | YXEGTXISDYSIXXDRXAQXNFVNWXLAQRPSSGAPPPSR (N-methyl on Tyr1 (Me-Tyr); Aib at 2, 13, 17, 20; Iva at 6, 26; Lys(Oda-GGGGGG-) at 14; C-terminal NH2) [Compound 479] | > 1e-06 M | –
4 | YXEGTFISDYSIAXDRXHQXNFVNWXLAQRPSSGAPPPSR (not fully specified; N-methyl on Tyr1 (Me-Tyr); Aib at 2, 13, 17, 20; Iva at 6, 26; Lys(Eda-GGGGGG-) at 14; C-terminal NH2) [Compound 522] | > 1e-06 M | –
5 | YXEGTXISDYSIXXDRXAQXNFVNWXLAQRPSSGAPPPSR (N-methyl on Tyr1 (Me-Tyr); Aib at 2, 13, 17, 20; Iva at 6, 26; Lys(Hepda-GGGGGG-) at 14; C-terminal NH2) [Compound 506] | > 1e-06 M | –
6 | YXEGTXISDYSIXXDRXAQXNFVNWXLAQRPSSGAPPPSR (N-methyl on Tyr1 (Me-Tyr); Aib at 2, 13, 17, 20; Iva at 6, 26; Lys(Eda-GGGGGG-) at 14; C-terminal NH2) [Compound 520] | > 1e-06 M | –
7 | [NMeY][Aib]EGTFISDYSI[dIva]LDR[Aib]AQQDFVNWLLAQRPSSGAPPPSR (ends and bridges not checked) [Compound 79] | – | Agonist activity (EC50, M) [2]: 1.1e-12 M; Agonist activity (EC50, M) [3]: > 1e-06 M; IC50 [4]: 1.2 nM
8 | Y[Aib]EGTVVSLYSI[Aib]LDKQAQ[Aib]EFVKWLLKGGPSSGAPPPSK-NH2 (N-terminus assumed; SMILES CC[C@H](C)[C@H](NC(=O)[C@H](CO)NC(=O)[C@H](Cc1ccc(O)cc1)NC(=O)[C@H](CC(C)C)NC(=O)[C@H](CO)NC(=O)[C@@H](NC(=O)[C@@H](NC(=O)[C@@H](NC(=O)CNC(=O)[C@H](CCC(=O)O)NC(=O)C(C)(C)NC(=O)[C@@H](N)Cc1ccc(O)cc1)[C@@H](C)O)C(C)C)C(C)C)C(=O)NC(C)(C)C(=O)N[C@@H](CC(C)C)C(=O)N[C@@H](CC(=O)O)C(=O)N[C@@H](CCCCN)C(=O)N[C@@H](CCC(N)=O)C(=O)N[C@@H](C)C(=O)N[C@@H](CCC(N)=O)C(=O)NC(C)(C)C(=O)N[C@@H](CCC(=O)O)C(=O)N[C@@H](Cc1ccccc1)C(=O)N[C@H](C(=O)N[C@@H](CCCCN)C(=O)N[C@@H](Cc1c[nH]c2ccccc12)C(=O)N[C@@H](CC(C)C)C(=O)N[C@@H](CC(C)C)C(=O)N[C@@H](CCCCN)C(=O)NCC(=O)NCC(=O)N1CCC[C@H]1C(=O)N[C@@H](CO)C(=O)N[C@@H](CO)C(=O)NCC(=O)N[C@@H](C)C(=O)N1CCC[C@H]1C(=O)N1CCC[C@H]1C(=O)N1CCC[C@H]1C(=O)N[C@@H](CO)C(=O)N[C@@H](CCCCN)C(N)=O)C(C)C) [Compound 6] | – | Agonist activity (EC50, M) [5]: > 1e-06 M
9 | YXEGTXISDYSIXXDRXAQXNFVNWXLAQRPSSGAPPPS (N-terminal acetyl (Ac-Tyr); Aib at 2, 13, 17, 20; Iva at 6, 26; Lys(Eda-GGGGG-) at 14; C-terminal NH2) [Compound 435] | > 1e-06 M | –
10 | YXEGTXISDYSIXXDRXHQXNFVNWXLAQRPSSGAPPPS (N-methyl on Tyr1 (Me-Tyr); Aib at 2, 13, 17, 20; Iva at 6, 26; Lys(Hepda-GGGGGG-) at 14; C-terminal NH2) [Compound 510] | > 1e-06 M | –
11 | YXEGTXISDYSIXLDRXHQXNFVNWXLAQRPSSGAPPPS (N-methyl on Tyr1 (Me-Tyr); Aib at 2, 13, 20; Iva at 6, 26; Lys(Eda-GGGGG-) at 17; C-terminal NH2) [Compound 493] | > 1e-06 M | –
12 | YXEGTXISDYSIXXDRXAQXNFVNWXLAQRPSSGAPPPS (N-methyl on Tyr1 (Me-Tyr); Aib at 2, 13, 17, 20; Iva at 6, 26; Lys(Heda-GGGGG-) at 14; C-terminal NH2) [Compound 445] | > 1e-06 M | –
13 | YXEGTXISDYSIXXDRXAQXNFVNWXLAQRPSSGAPPPS (N-methyl on Tyr1 (Me-Tyr); Aib at 2, 13, 17, 20; Iva at 6, 26; Lys(Hepda-GGGGG-) at 14; C-terminal NH2) [Compound 465] | > 1e-06 M | –
14 | YXEGTXISDYSIXXDRXAQXNFVNWXLAQRPSSGAPPPS (N-methyl on Tyr1 (Me-Tyr); Aib at 2, 13, 17, 20; Iva at 6, 26; Lys(Hepda-GGGGGG-) at 14; C-terminal NH2) [Compound 466] | > 1e-06 M | –
15 | YXEGTXISDYSIXLDRXHQXNFVNWXLAQRPSSGAPPPS (N-methyl on Tyr1 (Me-Tyr); Aib at 2, 13, 20; Iva at 6, 26; Lys(Oda-GGGGGG-) at 17; C-terminal NH2) [Compound 492] | > 1e-06 M | –
16 | YXEGTXISDYSIXXDRXHQXNFVNWXLAQRPSSGAPPPS (N-methyl on Tyr1 (Me-Tyr); Aib at 2, 13, 17, 20; Iva at 6, 26; Lys(Heda-GGGGGG-) at 14; C-terminal NH2) [Compound 509] | > 1e-06 M | –
17 | YXEGTXISDYSIXXDRXHQXNFVNWXLAQRPSSGAPPPS (N-methyl on Tyr1 (Me-Tyr); Aib at 2, 13, 17, 20; Iva at 6, 26; Lys(Oda-GGGGGG-) at 14; C-terminal NH2) [Compound 484] | > 1e-06 M | –

Row | Binder | Agonist activity (EC50, M) [1] | also measured
18 | YXEGTXISDYSIXLDRXHQXNFVNWXLAQRPSSGAPPPS (N-methyl on Tyr1 (Me-Tyr); Aib at 2, 13, 20; Iva at 6, 26; Lys(Oda-GGGGG-) at 17; C-terminal NH2) [Compound 491] | > 1e-06 M | –
19 | YXEGTXISDYSIXLDRXAQXNFVNWXLAQRPSSGAPPPS (N-methyl on Tyr1 (Me-Tyr); Aib at 2, 13, 20; Iva at 6, 26; Lys(Oda-GGGGGG-) at 17; C-terminal NH2) [Compound 496] | > 1e-06 M | –
20 | YXEGTXISDYSIXLDRXAQXNFVNWXLAQRPSSGAPPPS (N-methyl on Tyr1 (Me-Tyr); Aib at 2, 13, 20; Iva at 6, 26; Lys(Hepda-GGGGGG-) at 17; C-terminal NH2) [Compound 495] | > 1e-06 M | –
21 | YXEGTXISDYSIXXDRXHQXNFVNWXLAQRPSSGAPPPS (N-methyl on Tyr1 (Me-Tyr); Aib at 2, 13, 17, 20; Iva at 6, 26; Lys(Eda-GGGGGG-) at 14; C-terminal NH2) [Compound 521] | > 1e-06 M | –
22 | YXEGTXISDYSIXXDRXHQXNFVNWXLAQRPSSGAPPPS (N-methyl on Tyr1 (Me-Tyr); Aib at 2, 13, 17, 20; Iva at 6, 26; Lys(Eda-GGGGG-) at 14; C-terminal NH2) [Compound 475] | > 1e-06 M | –
23 | YXEGTXISDYSIXLDRXHQXNFVNWXLAQRPSSGAPPPS (N-methyl on Tyr1 (Me-Tyr); Aib at 2, 13, 20; Iva at 6, 26; Lys(Hepda-GGGGGG-) at 17; C-terminal NH2) [Compound 504] | > 1e-06 M | –
24 | YXEGTXISDYSIXLDRXHQXNFVNWXLAQRPSSGAPPPS (N-methyl on Tyr1 (Me-Tyr); Aib at 2, 13, 20; Iva at 6, 26; Lys(Heda-GGGGGG-) at 17; C-terminal NH2) [Compound 503] | > 1e-06 M | –
25 | YXEGTXISDYSIXXDRXAQXNFVNWXLAQRPSSGAPPPS (not fully specified; N-methyl on Tyr1 (MeTyr); Aib at 2, 13, 17, 20; Iva at 6, 26; Lys(Oda-GGGGG-) at 14; C-terminal OH) [Compound 441] | > 1e-06 M | –
26 | YXEGTXISDYSIXLDRXAQXNFVNWXLAQRPSSGAPPPS (N-methyl on Tyr1 (Me-Tyr); Aib at 2, 13, 20; Iva at 6, 26; Lys(Heda-GGGGGG-) at 17; C-terminal NH2) [Compound 494] | > 1e-06 M | –
27 | YXEGTXISDYSIXXDRXHQXNFVNWXLAQRPSSGAPPPS (N-methyl on Tyr1 (Me-Tyr); Aib at 2, 13, 17, 20; Iva at 6, 26; Lys(Heda-GGGGG-) at 14; C-terminal NH2) [Compound 507] | > 1e-06 M | –
28 | YXEGTXISDYSIXXDRXAQXNFVNWXLAQRPSSGAPPPS (N-methyl on Tyr1 (Me-Tyr); Aib at 2, 13, 17, 20; Iva at 6, 26; Lys(Oda-GGGGGG-) at 14; C-terminal NH2) [Compound 439] | > 1e-06 M | –
29 | YXEGTXISDYSIXLDRXHQXNFVNWXLAQRPSSGAPPPS (N-methyl on Tyr1 (Me-Tyr); Aib at 2, 13, 20; Iva at 6, 26; Lys(Hepda-GGGGG-) at 17; C-terminal NH2) [Compound 502] | > 1e-06 M | –
30 | YXEGTXISDYSIXXDRXAQXNFVNWXLAQRPSSGAPPPS (N-methyl on Tyr1 (Me-Tyr); Aib at 2, 13, 17, 20; Iva at 6, 26; Lys(Hda-GGGGG-) at 14; C-terminal NH2) [Compound 459] | > 1e-06 M | –
31 | YXEGTXISDYSIXXDRXHQXNFVNWXLAQRPSSGAPPPS (N-methyl on Tyr1 (Me-Tyr); Aib at 2, 13, 17, 20; Iva at 6, 26; Lys(Hepda-GGGGG-) at 14; C-terminal NH2) [Compound 508] | > 1e-06 M | –
32 | YXEGTXISDYSIXXDRXAQXNFVNWXLAQRPSSGAPPPS (N-methyl on Tyr1 (Me-Tyr); Aib at 2, 13, 17, 20; Iva at 6, 26; Lys(Heda-GGGGGG-) at 14; C-terminal NH2) [Compound 457] | > 1e-06 M | –
33 | [NMeY][Aib]EGTFISDYSI[dIva]LDRIAQ[Aib]NFVNW[Iva]LAQRPSSGAPPPSR (ends and bridges not checked) [Compound 92] | – | Agonist activity (EC50, M) [2]: 1.3e-12 M; Agonist activity (EC50, M) [3]: > 1e-06 M; IC50 [4]: 2.3 nM
